The results in this text go back to the Immune Epitope Database (IEDB).

One may read the IC50 as the concentration needed to halve the response being measured.

Among the targets are HLA-A*02:01; HLA-A*68:02; HLA-A*02:02; HLA-A*02:03; HLA-A*02:06.
Holding throughout (test): IEDB peptide-MHC binding, purified MHC/competitive/radioactivity; ≥ and ≤ were set here for values at or beyond the usual limits of such assays
Setting [1] is: source organism: Vaccinia virus WR.
The mark [2] stands for this setting: source organism: Hepacivirus hominis.
The mark [3] stands for this setting: source organism: Mammarenavirus guanaritoense.
The mark [4] stands for this setting: source organism: Influenza A virus.
Where [5] appears, read: source organism: Mammarenavirus brazilense.
[6] abbreviates: source organism: Mammarenavirus whitewaterense.

For TLISSDGARV, the IC50 with HLA-A*02:01 (setting [1]) stood at 621 nM; with HLA-A*68:02 (setting [1]) it was 542 nM; with HLA-A*02:02 (setting [1]) it was 142 nM; with HLA-A*02:03 (setting [1]), 133 nM; with HLA-A*02:06 (setting [1]) it was 1220 nM.
As for TLLCVLAALV, the IC50 worked out at 29 nM with HLA-A*02:01 (source organism: SARS-CoV1); 4390 nM in the assay with HLA-A*68:02 (source organism: SARS-CoV1); 4.6 nM with HLA-A*02:02 (source organism: SARS-CoV1); 77 nM in the assay with HLA-A*02:03 (source organism: SARS-CoV1); 65 nM in the assay with HLA-A*02:06 (source organism: SARS-CoV1).
As to TLLGCWSFV, the 50% inhibitory concentration (IC50) was determined as 30 nM with HLA-A*02:01 (setting [2]); 1780 nM in the assay with HLA-A*68:02 (setting [2]); 87 nM with HLA-A*02:02 (setting [2]); 41 nM with HLA-A*02:03 (setting [2]); 134 nM with HLA-A*02:06 (setting [2]).
Take TLLGLILFVL: the IC50 was 35 nM with HLA-A*02:01 (setting [1]); 720 nM in the assay with HLA-A*68:02 (setting [1]); 169 nM with HLA-A*02:02 (setting [1]); 796 nM in the assay with HLA-A*02:03 (setting [1]); 672 nM in the assay with HLA-A*02:06 (setting [1]).
With TLLIKTLSPA, the IC50 worked out at 0.49 nM with HLA-A*02:01 (setting [1]); 1210 nM in the assay with HLA-A*68:02 (setting [1]); 1 nM with HLA-A*02:02 (setting [1]); 1.2 nM with HLA-A*02:03 (setting [1]); 0.73 nM in the assay with HLA-A*02:06 (setting [1]).
For TLLNETAKV the same measures were 28 nM, 1670 nM, 246 nM, 83 nM and 11 nM.
The matching figures for TLNTLITLI: 51 nM, 472 nM, 0.99 nM, 0.6 nM and 941 nM.
Take TLNTLITLIL: the IC50 was found to be 45 nM in the assay with HLA-A*02:01 (setting [1]); 1140 nM with HLA-A*68:02 (setting [1]); 150 nM with HLA-A*02:02 (setting [1]); 7.1 nM in the assay with HLA-A*02:03 (setting [1]); 826 nM in the assay with HLA-A*02:06 (setting [1]).
Turning to TLPELNLSL, the half-inhibitory concentration (IC50) turned out to be 62 nM with HLA-A*02:01 (setting [1]); 309 nM with HLA-A*68:02 (setting [1]); 135 nM in the assay with HLA-A*02:02 (setting [1]); 23 nM with HLA-A*02:03 (setting [1]); 802 nM with HLA-A*02:06 (setting [1]).
TLVDLCFWS: the IC50 with HLA-A*02:01 (setting [3]) turned out to be 61 nM; with HLA-A*68:02 (setting [3]), 4880 nM; with HLA-A*02:02 (setting [3]) it was 58 nM; with HLA-A*02:03 (setting [3]), 524 nM; with HLA-A*02:06 (setting [3]), 134 nM.
Regarding TLVKSGLTEV, the IC50 in the assay with HLA-A*02:01 (setting [1]) was 9.2 nM; with HLA-A*68:02 (setting [1]), 2320 nM; in the assay with HLA-A*02:02 (setting [1]), 64 nM; with HLA-A*02:03 (setting [1]), 2.9 nM; with HLA-A*02:06 (setting [1]), 45 nM.
Turning to TMADLVYAL, the IC50 stood at 6.5 nM in the assay with HLA-A*02:01 (source organism: SARS-CoV1); 20 nM in the assay with HLA-A*68:02 (source organism: SARS-CoV1); 0.18 nM with HLA-A*02:02 (source organism: SARS-CoV1); 16 nM with HLA-A*02:03 (source organism: SARS-CoV1); 47 nM with HLA-A*02:06 (source organism: SARS-CoV1).
With TMSIYIAVA, the IC50 was found to be 136 nM with HLA-A*02:01 (setting [1]); 300 nM with HLA-A*68:02 (setting [1]); 81 nM with HLA-A*02:02 (setting [1]); 41 nM in the assay with HLA-A*02:03 (setting [1]); 786 nM with HLA-A*02:06 (setting [1]).
On to TQWSLFFFV, for which the half-maximal inhibitory concentration (IC50) with HLA-A*02:01 (source organism: SARS-CoV1) was 0.77 nM; with HLA-A*68:02 (source organism: SARS-CoV1) it was 104 nM; with HLA-A*02:02 (source organism: SARS-CoV1), 80 nM; with HLA-A*02:03 (source organism: SARS-CoV1), 540 nM; in the assay with HLA-A*02:06 (source organism: SARS-CoV1), 0.81 nM.
For TSFFYRYGFV, the IC50 with HLA-A*02:01 (setting [4]) was found to be 1100 nM; with HLA-A*68:02 (setting [4]) it was 0.0096 nM; in the assay with HLA-A*02:02 (setting [4]), 1100 nM; with HLA-A*02:03 (setting [4]), 451 nM; in the assay with HLA-A*02:06 (setting [4]) it was 851 nM.
In the case of TSISGVLWTV, the concentration for half-maximal inhibition (IC50) with HLA-A*02:01 (setting [2]) turned out to be 26 nM; in the assay with HLA-A*68:02 (setting [2]), 2.2 nM; in the assay with HLA-A*02:02 (setting [2]), 8.1 nM; with HLA-A*02:03 (setting [2]) it was 27 nM; with HLA-A*02:06 (setting [2]), 82 nM.
Turning to TSLGLLYTV, the IC50 with HLA-A*02:01 (setting [5]) turned out to be 115 nM; with HLA-A*68:02 (setting [5]) it was 13 nM; in the assay with HLA-A*02:02 (setting [5]) it was 934 nM; with HLA-A*02:03 (setting [5]), 405 nM; with HLA-A*02:06 (setting [5]), 4.2 nM.
TSVDLNAPV: the 50% inhibitory concentration (IC50) came to 464 nM with HLA-A*02:01 (setting [3]); 0.26 nM with HLA-A*68:02 (setting [3]); 65 nM with HLA-A*02:02 (setting [3]); 841 nM with HLA-A*02:03 (setting [3]); 26 nM with HLA-A*02:06 (setting [3]).
As for TTFITVLTSV, the IC50 with HLA-A*02:01 (setting [1]) stood at 271 nM; with HLA-A*68:02 (setting [1]), 15 nM; with HLA-A*02:02 (setting [1]) it was 1120 nM; in the assay with HLA-A*02:03 (setting [1]), 16 nM; in the assay with HLA-A*02:06 (setting [1]), 166 nM.
For TTIGTIAGGV the same measures were 978 nM, 0.2 nM, 741 nM, 43 nM and 84 nM.
For TTLLNETAKV the same measures were 2880 nM, 237 nM, 1640 nM, 0.17 nM and 1650 nM.
For TVGMSIVCIV the same measures were 526 nM, 220 nM, 528 nM, 468 nM and 200 nM.
As to TVIKTLLEV, the half-inhibitory concentration (IC50) worked out at 276 nM with HLA-A*02:01 (setting [6]); 2.8 nM in the assay with HLA-A*68:02 (setting [6]); 2020 nM in the assay with HLA-A*02:02 (setting [6]); 53 nM with HLA-A*02:03 (setting [6]); 17 nM in the assay with HLA-A*02:06 (setting [6]).
TVLTSVDIET: the IC50 with HLA-A*02:01 (setting [1]) came out at 1260 nM; with HLA-A*68:02 (setting [1]) it was 2990 nM; with HLA-A*02:02 (setting [1]), 1720 nM; in the assay with HLA-A*02:03 (setting [1]), 915 nM; in the assay with HLA-A*02:06 (setting [1]) it was 961 nM.
For TVPTNDHIPV the same measures were 1670 nM, 57 nM, 1680 nM, 1890 nM and 515 nM.
For TVQEFIFSAL the same measures were 321 nM, 7.8 nM, 81 nM, 90 nM and 44 nM.
For VIADYNYKL, the IC50 with HLA-A*02:01 (source organism: SARS-CoV1) turned out to be 24 nM; in the assay with HLA-A*68:02 (source organism: SARS-CoV1), 290 nM; with HLA-A*02:02 (source organism: SARS-CoV1) it was 0.48 nM; with HLA-A*02:03 (source organism: SARS-CoV1) it was 115 nM; with HLA-A*02:06 (source organism: SARS-CoV1), 69 nM.
On to VIIMAINVFT, for which the IC50 with HLA-A*02:01 (setting [1]) is 641 nM; in the assay with HLA-A*68:02 (setting [1]), 740 nM; with HLA-A*02:02 (setting [1]), 320 nM; with HLA-A*02:03 (setting [1]) it was 820 nM; with HLA-A*02:06 (setting [1]) it was 674 nM.
The matching figures for VIKLVKSLV: 881 nM, 640 nM, 1030 nM, 126 nM and 4120 nM.
For VISVIFYFI the same measures were 331 nM, 7.6 nM, 1.4 nM, 729 nM and 497 nM.
The matching figures for VITYCLVTHM: 1320 nM, 387 nM, 478 nM, 582 nM and 2620 nM.
In the case of VLAGGVLAAV, the 50% inhibitory concentration (IC50) with HLA-A*02:01 (setting [2]) was found to be 7.8 nM; with HLA-A*68:02 (setting [2]) it was 59 nM; with HLA-A*02:02 (setting [2]), 4.3 nM; with HLA-A*02:03 (setting [2]) it was 6.7 nM; in the assay with HLA-A*02:06 (setting [2]), 33 nM.
VLALYSPPL: the concentration for half-maximal inhibition (IC50) with HLA-A*02:01 (setting [1]) came to 0.19 nM; in the assay with HLA-A*68:02 (setting [1]), 1400 nM; in the assay with HLA-A*02:02 (setting [1]), 0.22 nM; with HLA-A*02:03 (setting [1]) it was 0.41 nM; with HLA-A*02:06 (setting [1]) it was 33 nM.
For VLIAGIILLI, the 50% inhibitory concentration (IC50) in the assay with HLA-A*02:01 (setting [1]) was determined as 89 nM; with HLA-A*68:02 (setting [1]) it was 33 nM; with HLA-A*02:02 (setting [1]), 8.8 nM; in the assay with HLA-A*02:03 (setting [1]), 35 nM; in the assay with HLA-A*02:06 (setting [1]), 1020 nM.
For the sequence VLMTHFFSV, the IC50 with HLA-A*02:01 (setting [2]) was determined as 1.9 nM; with HLA-A*68:02 (setting [2]), 103 nM; with HLA-A*02:02 (setting [2]), 4.9 nM; with HLA-A*02:03 (setting [2]) it was 2.6 nM; with HLA-A*02:06 (setting [2]), 6.1 nM.
For VLMTHFFSVL the same measures were 114 nM, 4690 nM, 62 nM, 21 nM and 112 nM.
